According to US20250145729A1 (DENALI THERAPEUTICS, published 2025):

Columns and labels:
[1] = target: T1, circularly permuted cyno TfR apical domain (cynomolgus monkey, biotin on the Avi tag); test: SPR
T1 construct: a linker between the two segments is not described; also called cyTfR apical domain; not shown: Avi tag and PreScission site left after Ulp1 cleavage
T1 chain: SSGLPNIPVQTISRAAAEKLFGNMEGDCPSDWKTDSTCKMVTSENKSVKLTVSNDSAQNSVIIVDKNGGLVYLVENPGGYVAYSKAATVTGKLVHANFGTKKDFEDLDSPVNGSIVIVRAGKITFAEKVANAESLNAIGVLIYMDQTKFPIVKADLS
Procedure: (§1) Biacore™ Series S CM5 sensor chips were immobilized with anti-human Fab (GE Healthcare, 28958325). Molecules were captured on each flow cell and serial 3-fold dilutions of human TfR apical domain (2, 0.67, 0.22, 0.074, 0.025, and 0 μM) and cynomologous TfR apical domain (4, 1.3, 0.44, 0.15, 0.05, and 0 μM) were injected at a flow rate of 30 μL/min using single cycle kinetics method. Each sample was analyzed with a 60-second association and a 3-minute dissociation. After each cycle, the chip was regenerated using 10 mM glycine-HCl (pH 2.1) for 30 seconds at 50 μL/min. Binding response was corrected by subtracting the RU from a reference flow cell. A 1:1 Langmuir model of simultaneous fitting of kₒₙ and koff was used for kinetics analysis using Biacore™ 8K Evaluation Software. Table 32A below summarizes the binding affinities of selected clones for human and cynomolgus TfR apical domains.
(§2) The phage library was panned against biotinylated human TfR apical domain immobilized to magnetic streptavidin beads. Four rounds of phage panning were performed and enriched clones were sequenced. Unique hits were cloned onto an anti-BACE1 hIgG1 monoclonal antibody containing the “LALA” mutations, expressed in HEK293 cells, and purified by protein A chromatography. Affinity to human and cyno TfR apical domain was measured by SPR. Clones were evaluated for TfR-specific cell binding (FIGS. 43A and 43B).

[2] = target: T2, circularly permuted human TfR apical domain (human, biotin on the Avi tag); test: SPR
T2 construct: a linker between the two segments is not described; also called huTfR apical domain; not shown: Avi tag and PreScission site left after Ulp1 cleavage
T2 chain: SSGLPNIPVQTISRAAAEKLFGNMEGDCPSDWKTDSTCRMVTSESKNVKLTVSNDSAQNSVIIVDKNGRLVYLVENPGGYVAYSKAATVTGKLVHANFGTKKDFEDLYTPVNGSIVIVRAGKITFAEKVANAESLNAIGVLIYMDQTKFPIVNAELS
Procedure: as §1, §2

[3] = target: T3, cynomolgus monkey TfR on CHO cells (cynomolgus monkey, UniProt Q5RDH6 1-760 (Pongo abelii entry)); test: cell uptake at 37 C into CHO cells expressing cynomolgus monkey TfR, anti-human IgG staining, imaging (corrected spot intensity)
T3 construct: also called CHO:cyTfR; cyTfR expressing cells
T3 chain: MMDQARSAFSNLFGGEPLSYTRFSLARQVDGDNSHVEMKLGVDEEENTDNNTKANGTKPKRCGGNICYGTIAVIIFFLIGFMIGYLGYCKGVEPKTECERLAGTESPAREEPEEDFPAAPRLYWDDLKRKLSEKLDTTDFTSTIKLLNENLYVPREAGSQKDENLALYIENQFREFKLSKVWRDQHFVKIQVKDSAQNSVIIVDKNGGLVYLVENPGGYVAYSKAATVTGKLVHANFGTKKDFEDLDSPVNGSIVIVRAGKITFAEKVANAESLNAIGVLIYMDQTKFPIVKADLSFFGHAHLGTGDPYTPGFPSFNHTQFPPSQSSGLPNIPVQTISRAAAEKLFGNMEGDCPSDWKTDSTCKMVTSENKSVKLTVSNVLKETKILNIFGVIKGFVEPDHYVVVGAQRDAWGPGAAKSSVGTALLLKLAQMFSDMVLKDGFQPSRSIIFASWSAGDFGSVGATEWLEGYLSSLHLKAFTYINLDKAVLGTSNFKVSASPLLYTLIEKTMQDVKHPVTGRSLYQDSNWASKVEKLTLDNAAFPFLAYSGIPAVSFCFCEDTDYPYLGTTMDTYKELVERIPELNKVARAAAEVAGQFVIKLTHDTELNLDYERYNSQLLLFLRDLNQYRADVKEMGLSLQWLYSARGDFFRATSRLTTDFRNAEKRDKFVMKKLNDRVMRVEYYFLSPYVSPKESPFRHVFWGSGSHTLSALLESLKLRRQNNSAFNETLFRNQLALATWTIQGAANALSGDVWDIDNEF
Procedure: (§3) HEK293T, CHO:cyTfR, and CHO cells were plated at 40,000 cells/well of 96-well plates in standard growth media (DMEM (Gibco™ 11995073)+10% FBS (VWR 89510⁻¹⁸⁸)+1×Pen/Strep (Gibco 15140122)). Approximately 24 hours later, molecules were diluted into standard growth media warmed to 37° C. Old media was removed from the cells, and the diluted molecules were added to the cells. Cells were incubated at 37° C. for 45 minutes. Cells were then washed with PBS and then fixed for 10 minutes in 4% PFA (Electron Microscopy Sciences 15714-S). Cells were washed with PBS and then blocked with 5% BSA, 0.3% TritonX100 in PBS for 30 minutes. […] Cells were washed with PBS, imaged on an Opera Phenix, and images were analyzed with Harmony software.

[4] = target: T4, human TfR on HEK293T cells (human, UniProt P02786 1-760); test: cell uptake at 37 C into HEK293T human TfR positive cells, anti-human IgG staining, imaging (corrected spot intensity)
T4 construct: also called huTfR expressing cells; human TfR-positive cells
Procedure: as §3

[5] = target: T5, human CD98hc (human, UniProt P08195 109-529); test: affinity as listed in study design table; method not given there
T5 construct: also called huCD98hc; CD98 heavy chain
T5 sequence: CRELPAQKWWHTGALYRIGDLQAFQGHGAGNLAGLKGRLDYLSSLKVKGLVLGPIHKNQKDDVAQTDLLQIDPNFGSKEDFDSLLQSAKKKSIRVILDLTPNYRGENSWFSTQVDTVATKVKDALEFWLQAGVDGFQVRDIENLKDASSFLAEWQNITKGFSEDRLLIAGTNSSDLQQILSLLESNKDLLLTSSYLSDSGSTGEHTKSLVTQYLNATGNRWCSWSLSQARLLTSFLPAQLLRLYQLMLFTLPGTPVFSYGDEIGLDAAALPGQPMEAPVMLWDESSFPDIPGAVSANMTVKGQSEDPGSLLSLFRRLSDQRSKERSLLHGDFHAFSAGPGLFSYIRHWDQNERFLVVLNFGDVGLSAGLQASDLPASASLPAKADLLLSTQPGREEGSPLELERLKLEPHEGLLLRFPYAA

[6] = target: T5, human CD98hc; test: as above; remark: listed apart in the source
[7] = target: T5, human CD98hc; test: as above; remark: listed apart in the source
[8] = target: T5, human CD98hc; test: affinity as listed in study design table; method not given there; Bivalent, NBF Fabs
[9] = target: T6, TfR (Homo sapiens (Human), UniProt P02786 121-760, limits assumed); test: Biacore, after low pH hold and neutralisation
T6 construct: also called transferrin receptor
Procedure: (§4) Clone 6.5.11.5.42.2, with and without LS mutations, was assessed for low pH stability during developability assessment. The tested proteins are bivalent Fc-Fab fusion polypeptides comprising an anti-HER2 Fab domain linked to two Fc polypeptides each having the sequence of the identified clone and LALA mutations, with LS mutations or without LS mutations. An Fc control containing the anti-HER2 Fab domain linked to an Fc domain with LALA mutations and without TfR-binding sites was included for comparison.
(§5) Aliquots (100 μL) of each clone were added to wells of a 96-well plate containing 6 μL of 5% (v/v) acetic acid and mixed well. The plate was sealed and incubated at room temperature for about three (3) hours. Subsequently, 35 μL of 1 M Tris HCl (pH 7.5) was added to the samples and mixed well. The plate was sealed once again and incubated at room temperature for 24 hours. Control condition was storage in 1× PBS without any change in pH during incubation. The samples were then analyzed by Biacore for binding affinity and by size exclusion chromatography to detect intact fusion protein. FIG. 22 and Table 26 provide the results of the analyses.

[10] = target: T6, TfR; test: Biacore, control sample kept in PBS
Procedure: as §4, §5

B1: Clone 1 with LALA (Fc fusion)
chain: APEAAGGPSVFLFPPKPKDTLMISRTPEVTCVVVDVSHEDPEVKFNWYVDGVEVHNAKTKPREEQYNSTYRVVSVLTVLHQDWLNGKEYKCKVSNKALPAPIEKTISKAKGQPREPQVYTLPPSRDELTKNQVSLTCLVKGFYPSDIAVKWGSEVAPENNYKTTPPVLDSDGSFFLYSKLTVDKSRWQQGNIFACTVMHEALHNHYTLKMLSLSPGK
notes: Fc part only
B1 was tested, and the Kd [1] was 1800 nM, the Kd [2] was 480 nM and the binding result [3] was “binds”. B1: binds [4].

B2: Clone 3 with LALA (Fc fusion)
chain: APEAAGGPSVFLFPPKPKDTLMISRTPEVTCVVVDVSHEDPEVKFNWYVDGVEVHNAKTKPREEQYNSTYRVVSVLTVLHQDWLNGKEYKCKVSNKALPAPIEKTISKAKGQPREPQVYTLPPSRDELTKNQVSLTCLVKGFYPSDIAVLWGSAVAPENNYKTTPPVLDSDGSFFLYSKLTVDKSRWQQGNVFACTVMHEALHNHYTVKGLSLSPGK
notes: Fc part only
In the case of B2, the Kd [1] is reported as 6000 nM, the Kd [2] is reported as 1500 nM and the binding result [3] is reported as “binds”. B2: binds [4].

B3: Clone 1: LLB2-10-8 bivalent, BACE1 Fabs (Fc fusion)
chain: APELLGGPSVFLFPPKPKDTLMISRTPEVTCVVVDVSHEDPEVKFNWYVDGVEVHNAKTKPREEQYNSTYRVVSVLTVLHQDWLNGKEYKCKVSNKALPAPIEKTISKAKGQPREPQVYTLPPSRDELTKNQVSLTCLVKGFYPSDIAVLWNSRFVLENNYKTTPPVLDSDGSFFLYSKLTVDKSRWQQGEIFACNVYHEALHNHYTFKNLALSPGK
notes: bivalent; effector positive
Work on B3 yielded a Kd [5] of 100 to 200 nM.

B4: Clone 28: LLB2-37 bivalent, non-binding Fabs (Fc fusion)
chain: APELLGGPSVFLFPPKPKDTLMISRTPEVTCVVVDVSHEDPEVKFNWYVDGVEVHNAKTKPREEQYNSTYRVVSVLTVLHQDWLNGKEYKCKVSNKALPAPIEKTISKAKGQPREPQVYTLPPSRDELTKNQVSLTCLVKGFYPSDIAVLWNSQFHLENNYKTTPPVLDSDGSFFLYSKLTVDKSRWQQGNIFACNVYHEALHNHYTFKNLLLSPGK
notes: bivalent; effector positive
With B4 the Kd [6] was 390 nM.

B5: Clone 38: LLB2-10-8-d6 bivalent, non-binding Fabs, effector negative (Fc fusion)
chain: APEAAGGPSVFLFPPKPKDTLMISRTPEVTCVVVDVSHEDPEVKFNWYVDGVEVHNAKTKPREEQYNSTYRVVSVLTVLHQDWLNGKEYKCKVSNKALGAPIEKTISKAKGQPREPQVYTLPPSRDELTKNQVSLTCLVKGFYPSDIAVLWNSRFVLENNYKTTPPVLDSDGSFFLYSKLTVDKSRWQQGNVFACNVYHEALHNHYTFKNLALSPGK
B5 was tested, and the Kd [7] was 550 nM.

B6: Clone 4: LLB1-3 D380E bivalent, non-binding Fabs (Fc fusion)
chain: APELLGGPSVFLFPPKPKDTLMISRTPEVTCVVVDVSHEDPEVKFNWYVDGVEVHNAKTKPREEQYNSTYRVVSVLTVLHQDWLNGKEYKCKVSNKALPAPIEKTISKAKGQPREPQVYTLPPSRDELTKNQVSLTCLVKGFYPSDIAVEWRSYKPYENNYKTTPPVLDSDGSFFLYSKLTVDKSRWQQGNIFVCDVMHEALHNHYTIKKLSLSPGK
notes: bivalent; effector positive
For B6, the Kd [8] was 1000 nM.

B7: Clone 26: LLB2-10-8 bivalent, non-binding Fabs (Fc fusion)
chain: APELLGGPSVFLFPPKPKDTLMISRTPEVTCVVVDVSHEDPEVKFNWYVDGVEVHNAKTKPREEQYNSTYRVVSVLTVLHQDWLNGKEYKCKVSNKALPAPIEKTISKAKGQPREPQVYTLPPSRDELTKNQVSLTCLVKGFYPSDIAVLWNSRFVLENNYKTTPPVLDSDGSFFLYSKLTVDKSRWQQGEIFACNVYHEALHNHYTFKNLALSPGK
notes: bivalent; effector positive
For B7, the Kd [6] was 100 to 200 nM and the Kd [7] was 100 to 200 nM.

B8: 42.2 LALA (bivalent clone 6.5.11.5.42.2 with LALA, anti-HER2 Fab) (Fc fusion)
chain: APEAAGGPSVFLFPPKPKDTLMISRTPEVTCVVVDVSHEDPEVKFNWYVDGVEVHNAKTKPREEQYNSTYRVVSVLTVLHQDWLNGKEYKCKVSNKALPAPIEKTISKAKGQPREPQVYTLPPSRDELTKNQVSLTCLVKGFYPSDIAVEWFSDGSKETNYKTTPPVLDSDGSFFLYSKLTVDKSRWQQGNLFACEVMHEALHNHYTYKLLSLSPGK
B8 was tested, and the Kd [9] was 1180 nM and the Kd [10] was 1170 nM.

B9: 42.2 LALA LS (bivalent clone 6.5.11.5.42.2 with LALA and LS, anti-HER2 Fab) (Fc fusion)
chain: APEAAGGPSVFLFPPKPKDTLMISRTPEVTCVVVDVSHEDPEVKFNWYVDGVEVHNAKTKPREEQYNSTYRVVSVLTVLHQDWLNGKEYKCKVSNKALPAPIEKTISKAKGQPREPQVYTLPPSRDELTKNQVSLTCLVKGFYPSDIAVEWFSDGSKETNYKTTPPVLDSDGSFFLYSKLTVDKSRWQQGNLFACEVLHEALHSHYTYKLLSLSPGK
B9 was tested, and the Kd [9] was 1810 nM and the Kd [10] was 1700 nM.
